According to patent US20170119790A1, “Agents, Uses and Methods” (CYTOGUIDE A/S, priority 2009, published 2017):
Each block holds one molecule with its values, some of them ahead of it.

How the values were obtained:
[1] = tested on: LPS mediated TNFα stimulation of rat macrophages / spleen cells; assay: Rat in vitro LPS model; format: cell-based; details: FIG. 41
Description: Rat or mouse peritoneal or spleen cell suspensions were prepared from female Lewis rats (Harlan) or BalB/cA mice (Taconic). Human mononuclear cells were isolated from buffycoats (Skejby University Hospital) as described above. The purified cells were suspended in RPMI medium supplemented with 10% FCS and 2 mM L-glutamine and cultured (2×10^5 per well) overnight in 96-well flat bottomed plates (125 μl per well) at 37° C. and 5% CO2. Glucocorticoid conjugates (Example 8), free glucocorticoids or PBS were serial diluted in supplemented RPMI medium and added (100 μl) to the overnight cell cultures at final concentrations ranging from 1-10^−7 μg glucocorticoid/ml. After incubation for a specific time ranging from 30 min-24 hours, 150 μl supernatant was carefully aspirated and 150 μl supplemented RPMI medium added to the wells before further incubation overnight. Each incubation condition was tested in duplicates or triplicates. After 16-20 hours, the cells were challenged with lipopolysaccharide (LPS) (250 ng/ml) for 4 hours before supernatant was aspirated from each well and frozen at -20° C.

[2] = tested on: LPS mediated TNFα stimulation; assay: Rat in vivo LPS model; design: species or system Lewis rats; details: i.v., challenged with LPS, FIG. 41
[3] = target: T1, CD163 (Homo sapiens, UniProt Q86VB7); assay: Surface plasmon resonance (Biacore) analysis of mAb binding to immobilized CD163; details: in both 2 mM free Ca2+ and 10 mM EDTA
Description: (§1) SPR analysis of the binding of mAbs to CD163 was carried out on a Biacore 2000 instrument (Biacore, Uppsala, Sweden). The Biacore sensor chips (type CM5) were activated with a 1:1 mixture of 0.2 M N-ethyl-N′-(3-dimethylaminopropyl) carbodiimide and 0.05 M N-hydroxysuccimide in water. Purified recombinant CD163 were immobilized in 10 mM sodium acetate, pH 4.0, and the remaining binding sites were blocked with 1 M ethanolamine, pH 8.5. The SPR signal generated from immobilized recombinant CD163 proteins corresponded to 40-70 fmol of protein/mm^2. Sensorgrams were generated using mAb concentrations ranging from 5-100 nM. The flow cells were regenerated with 1.6 M glycine-HCl, pH 3. The running buffer used for the experiment was either CaHBS 10 mM Hepes, 150 mM NaCl, 3.0 mM CaCl2, 1.0 mM EGTA, and 0.005% Tween 20, […], and 0.005% Tween 20, pH 7.4, mAb samples were dissolved in the same buffer as the running buffer used. All binding data were analyzed using the Biamolecular Interaction Analysis evaluation program version 3.1.
as §1, with “7.4, KN2/NRY and Mac-158” for “7.4, mAb”, “buffer used at a concentration of 5 μg/ml.” for “buffer used.”

[4] = target: T1, CD163; assay: Competition of binding to Mac2-158 epitope (SPR on Mac2-158 saturated CD163 chip); details: 2 mM free calcium buffer, mAb 5 μg/ml
Description: To evaluate if there is competition in the binding of a range of mAbs to CD163 we first saturated the CD163-chip with Mac2-158 by injecting 50 μL of 50 μg/ml Mac2-158 and subsequently injecting relevant mAbs in 5 μg/ml. The binding buffer was CaHBS 10 mM Hepes, 150 mM NaCl, 3.0 mM CaCl2, 1.0 mM EGTA, and 0.005% Tween 20, pH 7.4.

[5] = target: T2, CHO cells expressing CD163 (Homo sapiens, UniProt Q86VB7); assay: CD163 antibody binding and uptake in CHO cells expressing CD163 (confocal microscopy); format: cell-based; details: 0 or 30 minutes, FIG. 7
T2 construct: Stably transfected Chinese hamster ovary (CHO) cells expressing the full-length human CD163; expressed in transfected cells
Description: Monocytes were isolated from PBMC by negative selection using magnetic beads from Dynal (Dynabeads® MyPure™ Monocyte Kit 2; Invitrogen A/S, Taastrup, Denmark) according to instructions provided by the manufacturer. Monocyte preparations were more than 95% (CD14^+) pure determined by flow cytometry. The isolated cells were washed twice with phosphate-buffered saline. Monocyte-derived macrophages (MDMs) were prepared by cell culture of monocytes (approximately 1×10^7 cells) for 4 days in 5% CO2 and 37° C. in RPMI 1640 media (RPMI 1640+25 mM HEPES+I-glutamine) (Invitrogen Corporation, Carlsbad, Calif., USA) with 20% FCS containing 100 ng/ml of M-CSF. MDMs were then detached from the flask by incubation with cell dissociation buffer (Invitrogen A/S, Taastrup, Denmark) for 30 minutes at 4 °C, then flushed, and scraped. […]
MDMs or CHO cells were washed with 4° C. cold D-PBS, pH 7.4, containing 1% BSA in Lab-Tek™ Chamber Slides (Thermo Fisher Scientific, Roskilde, Denmark). […] Fluorescence was visualized using a Zeiss Axiovert 200M microscope (Carl Zeiss GmbH, Jena, Germany) with an ×100 oil-immersion objective. […] Alternatively, immunostained cells were analyzed by confocal immunofluorescence microscopy using a Zeiss LSM-510 confocal microscope (Carl Zeiss GmbH, Jena, Germany). […]

[6] = target: T3, CD163 transfected Flp-In CHO cells (Homo sapiens, UniProt Q86VB7); assay: Cellular binding and uptake (endocytosis) of 125I-labeled anti-CD163; format: cell-based
T3 construct: Stably transfected Chinese hamster ovary (CHO) cells expressing the full-length human CD163; expressed in transfected cells
Description: Monocytes were isolated from PBMC by negative selection using magnetic beads from Dynal (Dynabeads® MyPure™ Monocyte Kit 2; Invitrogen A/S, Taastrup, Denmark) according to instructions provided by the manufacturer. Monocyte preparations were more than 95% (CD14^+) pure determined by flow cytometry. The isolated cells were washed twice with phosphate-buffered saline. Monocyte-derived macrophages (MDMs) were prepared by cell culture of monocytes (approximately 1×10^7 cells) for 4 days in 5% CO2 and 37° C. in RPMI 1640 media (RPMI 1640+25 mM HEPES+I-glutamine) (Invitrogen Corporation, Carlsbad, Calif., USA) with 20% FCS containing 100 ng/ml of M-CSF. MDMs were then detached from the flask by incubation with cell dissociation buffer (Invitrogen A/S, Taastrup, Denmark) for 30 minutes at 4 °C, then flushed, and scraped. The cells were then cultured for 24 hours in RPMI 1640 media (RPMI 1640+25 mM HEPES+I-glutamine) (Invitrogen Corporation, Carlsbad, Calif., USA) supplemented with 20% FCS containing 100 ng/ml of M-CSF at 37° C. in 95% air and 5% CO2 in Lab-Tek™ Chamber Slides (Thermo Fisher Scientific, Roskilde, Denmark). 200 nM dexamethasone (Merck KGaA, Darmstadt, Germany) was added during culture to increase CD163 expression. Stably transfected Chinese hamster ovary (CHO) cells expressing the full-length human CD163, as described above, were cultured in serum-free CHO medium (HyQ-CCM, HyClone, Logan, Utah) containing 300 μg/ml Hygromycin B, as previously described (2).
Endocytosis of ^125I-labeled anti-CD163 was investigated in CD163 transfected Flp-In Chinese hamster ovary (CHO) cells and mock-transfected Flp-In as described (Madsen, M., Moller, H. J., Nielsen, M. J., Jacobsen, C., Graversen, J. H., van den Berg, T. and Moestrup, S. K. (2004) Molecular characterization of the haptoglobin.hemoglobin receptor CD163. Ligand binding properties of the scavenger receptor cysteine-rich domain region. J. Biol. Chem., 279, 51561-51567.)

[7] = target: T1, CD163; assay: scFv ELISA; format: binding; details: for ELISA signal: PBS, read at 450 nm
Description: A nunc Maxisorp ELISA plate (NUNC, Roskilde, Denmark) was coated with 50 μl/well of 2 μg/ml of CD163 (purified as described in (2)) over night at 4° C. The coated plate was washed 3 times in PBS and blocked for 1 hour with 3% BSA in PBS. Fractions from scFv purification were tested by adding 100 μl/well of a 1:10 dilution of each sample in 1% BSA, PBS. The refolded protein sample was added directly to the wells (100 μl/well) and two-fold dilution series was made with dilution in 1% BSA in PBS. After 1 hour incubation at 4° C. the plate was washed 3 times in PBS again. Secondary detection was made with a 1 hour incubation of a HRP conjugated anti-His antibody (Sigma-Aldrich, Brøndby, Denmark) (1:4000 diluted in 1% BSA, PBS). After washing 3 times in PBS the ELISA was developed with […] TMB substrate (Invitrogen, Taastrup, Denmark). The reaction was stopped with 40 μl/well of 1 M H2SO4 and the plate was read in an ELISA reader at 450 nm.

T1 sequence (Q86VB7 42-1156): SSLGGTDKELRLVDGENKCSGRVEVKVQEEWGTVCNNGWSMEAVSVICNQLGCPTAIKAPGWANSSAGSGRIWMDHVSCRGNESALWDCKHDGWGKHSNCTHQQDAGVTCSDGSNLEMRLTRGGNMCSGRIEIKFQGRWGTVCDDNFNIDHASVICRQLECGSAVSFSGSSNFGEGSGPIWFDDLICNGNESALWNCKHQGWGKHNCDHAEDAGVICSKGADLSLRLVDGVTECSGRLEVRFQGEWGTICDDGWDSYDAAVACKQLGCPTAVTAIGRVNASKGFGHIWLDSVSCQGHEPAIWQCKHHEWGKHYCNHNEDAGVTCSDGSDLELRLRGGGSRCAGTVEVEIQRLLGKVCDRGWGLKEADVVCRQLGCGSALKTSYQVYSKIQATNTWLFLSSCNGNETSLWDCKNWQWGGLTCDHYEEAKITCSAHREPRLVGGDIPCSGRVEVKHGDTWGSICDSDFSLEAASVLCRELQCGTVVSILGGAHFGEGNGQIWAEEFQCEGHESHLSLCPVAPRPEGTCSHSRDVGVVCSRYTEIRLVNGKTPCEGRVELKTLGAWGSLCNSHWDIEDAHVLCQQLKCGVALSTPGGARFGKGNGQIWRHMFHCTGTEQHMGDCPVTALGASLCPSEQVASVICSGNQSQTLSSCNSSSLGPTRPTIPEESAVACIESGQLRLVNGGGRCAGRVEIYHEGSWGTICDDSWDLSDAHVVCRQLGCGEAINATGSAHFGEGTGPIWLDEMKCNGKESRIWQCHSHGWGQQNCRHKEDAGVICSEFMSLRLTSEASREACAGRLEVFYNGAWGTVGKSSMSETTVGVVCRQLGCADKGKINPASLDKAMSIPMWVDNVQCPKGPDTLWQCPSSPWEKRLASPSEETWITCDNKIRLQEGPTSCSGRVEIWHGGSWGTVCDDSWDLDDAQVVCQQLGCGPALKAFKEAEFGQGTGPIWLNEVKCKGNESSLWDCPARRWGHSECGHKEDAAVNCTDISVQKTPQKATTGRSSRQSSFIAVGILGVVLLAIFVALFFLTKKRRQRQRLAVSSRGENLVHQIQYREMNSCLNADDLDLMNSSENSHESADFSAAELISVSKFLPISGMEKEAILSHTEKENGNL
T3 sequence (Q86VB7 42-1156): as above
T2 sequence (Q86VB7 42-1156): as above

Molecule: CC1(C)O[C@@H]2C[C@H]3[C@@H]4C[C@H](F)C5=CC(=O)C=C[C@]5(C)[C@@]4(F)[C@@H](O)C[C@]3(C)[C@]2(C(=O)CO)O1 [fluocinolone-acetoniode, Fluocinolone acetonide]
suppressive in vitro effect compared to prednisolone [1]: significantly higher | TNFα level lower compared to vehicle [2]: 5 times

Molecule: C[C@]12C=CC(=O)C=C1CC[C@@H]1[C@@H]2[C@@H](O)C[C@@]2(C)[C@H]1CC[C@]2(O)C(=O)CO [prednisolone]
TNFα level lower compared to vehicle [2]: 5 times

Other lines, results leading:

affinities for CD163 [3]: nanomolar or sub-nanomolar range | binding to CD163-Fc saturated with Mac2-158 [4]: not able to bind | binding and uptake [5]: best binding and uptake | time course of cell-associated radioactivity (bound or internalized) ([6]; 125I-labelled mAb, increasing time points): did not reach a plateau | cellular uptake and binding to CD163-expressing cells ([6]; compared with the other tested antibodies, FIG. 5): considerably higher
B1: Mac2-48: anti-human CD163 murine mAb, IQ Products; VH SEQ ID NO: 3, VL SEQ ID NO: 4 (antibody, V domains shown)
VH: DVQLQESGPGLVKPSQSLSLTCTVTGYSITSDYAWNWIRQFPGNKLEWMGFISYSGITSYNPSLKSRISITRDTSKNQFFLQLNSVTTEDSATYYCVSGTYYFDYWGQGTTLTVSS
VL: SIVMTQTPKFLLVSAGDRVTITCKASQSVSHDVSWFQQKPGQSPKLLIYYTSNRYTGVPDRFTGSGYGTDFTFTISTVQAEDLAIYFCQQDYSSPRTFGGGTKLEIKRA
modifications: Mac2-48 VH; Mac2-48 VL

dilution down to which binding signals to CD163 were detected ([7]; 2 fold dilution series): 128 fold | ELISA signal ([7]; 64 fold dilution in 1% BSA): 0.29 | ELISA signal ([7]; 128 fold dilution in 1% BSA): 0.15
B2: refolded scFv: scFv (VH-15 residue linker-VL), SEQ ID NO: 56, expressed in E. coli and refolded (protein)
scFv: MDQVQLQESGPGLVKPSETLSLTCTVSGYSITSDYAWNWIRQFPGNKLEWMGYITYSGSTYYNPSLKSRVTISVDTSKNQFSLKLSSVTAADTATYYCVSGTYYFDYWGQGTTLTVSSGGGGSGGGGSGGGGSDIVMTQSPSSLSASVGDRVTITCRASQSVSSDVAWFQQKPGKSPKPLIYYASNRYSGVPSRFSGSGSGTDFTLTISSLQAEDFAVYFCGQDYTSPRTFGGGTKLEIKREQKLISEEDL
modifications: scFv sequence
